For two proteins, Km and Vmax results are on record in paper PMC4122463, “Application of Two Newly Identified and Characterized Feruloyl Esterases from Streptomyces sp. in the Enzymatic Production of Ferulic Acid from Agricultural Biomass” (PLoS ONE, 2014).

For orientation: Km means the concentration of substrate that gives half-maximal velocity. One may read the Vmax as the rate approached at saturating substrate.

Holding throughout (assay type): biochemical, Streptomyces cinnamoneus
Substrate in the series “purified protein”: CCCC(=O)Oc1ccc([N+](=O)[O-])cc1
As to the kind of experiment: purified protein. The following applies: general esterase assay.

Substrate in series [1]: COC(=O)/C=C/c1ccc(O)c(O)c1
Nature of the series: HPLC of released phenolic acid. The following applies: 50 mM Tris maleate, 40 °C, 30 min. An excerpt: (§1) HPLC of released phenolic acid on R43

Substrate in series [2]: CCOC(=O)/C=C/c1ccc(O)c(OC)c1
Nature of the series: HPLC of released phenolic acid. As to conditions: 50 mM Tris maleate, 40 °C, 30 min.
Description: as §1

Substrate in series [3]: COC(=O)/C=C/c1cc(OC)c(O)c(OC)c1
Nature of the series: HPLC of released phenolic acid. As to conditions: 50 mM Tris maleate, 40 °C, 30 min.
Description: as §1

Substrate in series [4]: COC(=O)/C=C/c1ccc(O)cc1
Nature of the series: HPLC of released phenolic acid. The following applies: 50 mM Tris maleate, 40 °C, 30 min.
Description: as §1

Substrate in series [5]: COC(=O)/C=C/c1ccc(O)c(OC)c1
Nature of the series: HPLC of released phenolic acid. As to conditions: 50 mM Tris maleate, 40 °C, 30 min.
Description: as §1

Substrate in series [6]: COC(=O)/C=C/c1ccc(O)c(O)c1
Nature of the series: HPLC of released phenolic acid. The following applies: 50 mM Tris maleate, 50 °C, 30 min. An excerpt:
(§2) HPLC of released phenolic acid on R18

Substrate in series [7]: CCOC(=O)/C=C/c1ccc(O)c(OC)c1
Nature of the series: HPLC of released phenolic acid. The following applies: 50 mM Tris maleate, 50 °C, 30 min.
Description: as §2

Substrate in series [8]: COC(=O)/C=C/c1cc(OC)c(O)c(OC)c1
Nature of the series: HPLC of released phenolic acid. The following applies: 50 mM Tris maleate, 50 °C, 30 min.
Description: as §2

Substrate in series [9]: COC(=O)/C=C/c1ccc(O)cc1
Nature of the series: HPLC of released phenolic acid. The following applies: 50 mM Tris maleate, 50 °C, 30 min.
Description: as §2

Substrate in series [10]: COC(=O)/C=C/c1ccc(O)c(OC)c1
Nature of the series: HPLC of released phenolic acid. The following applies: 50 mM Tris maleate, 50 °C, 30 min.
Description: as §2

B1: R43 (Streptomyces cinnamoneus) (protein)
chain: MEIRTAQGIVRGELTAGGLAVFRGVPYARPPVGNLRFAAPQPPLPWDGVRDALAFGPPPPQSGPARVPGDPAGTDWLTLNVWTPDPGGSGLPVLVWIPGGAYVSGAAGDPLYDAALLAGQGGLVVVTLNYRLGAEGFAHLPGVPDNRGLLDQLAALDWVRQNIARFGGNPDRVTLCGQSAGAGSIATLLAAPRAAGLFRRAITQSVPGLYATCALAADVTADLAARLGTTPTTAGLAAVSPQRLADAIDPLMEELPARIDRWGRLARSGVPFLPVVDGDVVPDVPWRSLRDGRASETDLLTGHTRDEFRPFLMLSGHPEKITDEDATAALRALAPAPDGERAYRAAHPDASPAALFELLYSDVLFRMPSLHLADAHSAGGGTAHLYELCLSAPALGGALGAAHGLDVSLLFGTYSAPAARLFYGEEPPPEDVLALGDDIRRSWASFAAHGDPGWPAYRVTDGRLTGLLDTGTGAGPYPEDASRRIWEGHGVEPFDLV
notes: full length, no signal peptide, secreted from Streptomyces expression host (pTONA vector); 498 aa; about 52 kDa; N-terminus at residue 1; monomer; powdered enzyme
Take B1: the Km came to 0.17 ± 0.05 mM in the series “purified protein”; 2.61 ± 0.25 mM in series [1]; 1.96 ± 0.14 mM in series [2]; 0.54 ± 0.07 mM in series [3]; 3.00 ± 0.26 mM in [4]; 4.41 ± 0.36 mM in series [5]. Also, the maximum rate (Vmax) came to 0.00056 µmol/min/mg in the series “purified protein”; 0.0021 µmol/min/mg in series [1]; 0.0153 µmol/min/mg in series [2]; 0.00104 µmol/min/mg in series [3]; 0.00817 µmol/min/mg in series [4]; 0.042 µmol/min/mg in series [5].

B2: R18 (Streptomyces cinnamoneus) (protein)
chain: ATAGQEVPAPATRIPLGTKTLHLVDASRQDPWKPSAGNRELMVTLWYPSLPSREPAAPYVSKPLSRAVLGNDVLAGVRTHAVAGARPAPVPRPLVVLSPGFGMSRITLTALGEDLASRGYAVAAVDHTYEAPVEFPGGRIEKCTLCDDSRMDPGAVVRNRAKDLRFVLDRLTGPGSELRVDARRIGVAGHSIGGASAVEVMREDRRVDAAINLDGNFFTEPPAEGLNKPVLLLGARRSGLPEPQENWERAWKQLTGWKRWLDVPAGGHMTFTDVPWIVDRFGMPGQIPPEQVEGQLGTVSAARATAVTRNYVAAFFDRHLRGRPSPLLDRPSSAHPEVTFMK
notes: secreted from Streptomyces expression host (pTONA vector), signal peptide removed; mature N-terminus at residue 42 of 383; about 38 kDa; monomer; powdered enzyme
With B2, the Km in series [6] is 3.31 ± 0.31 mM; in series [7] it was 4.28 ± 0.36 mM; in series [8], 9.39 ± 1.43 mM; in [9], 4.31 ± 0.26 mM; in series [10], 4.99 ± 1.72 mM. In addition, the Vmax in [6] came out at 0.00752 µmol/min/mg; in series [7] it was 0.0406 µmol/min/mg; in [8], 0.0367 µmol/min/mg; in [9] it was 0.0262 µmol/min/mg; in series [10], 0.0523 µmol/min/mg.
